From patent US12319747B2, “Methods of using anti-SP17 immunotherapeutics” (Medicovestor, Inc., priority 2023, dated 2025)
Entries after “also recorded” stand apart in the source; their conditions may differ.

Tested on: 33 normal human tissues
Assay: Immunohistochemistry on a normal tissue microarray (specificity)
Details: 33 normal tissues, 2-3 human donors per tissue
Method: The specificity of the chAB2 antibody for Sp17 was determined with immunohistochemistry on a normal tissue microarray, which consisted of 33 normal tissues obtained from 2-3 human donors per tissue. The normal tissues included brain, eye, adrenal gland, hypophyseal, thyroid, parathyroid, tonsil, thymus, spleen, heart, lung, larynx, esophagus, stomach, small intestine, colon, liver, pancreas, salivary gland, kidney, bone, skeletal, skin, peripheral nerve, mesothelial, breast, ovary, endometrium, cervix, testis, and prostate.

B1: chAB2: mouse-human chimeric anti-Sp17 monoclonal antibody; human VH/VL (SEQ ID NO: 3, 4) in mouse IgG2a heavy chain and mouse kappa light chain (antibody, V domains shown)
VH: QVQLQQSGAEVKKPGSSVKVSCKASGGTFSSYAISWVRQAPGQGLEWMGRIIPILGIANYAQKFQGRVTITADKSTSTAYMELSSLRSEDTAVYYCARPSEEVVAAYGAFDIWGQGTTVTVSS
VL: EIVLTQSPLSLPVRPGEPASISCRASQSLLRSDGFNYLDWYLQKPGQSPQLLVYLGSNRASGVPDRFSGSGSGTDFTLKISRVEAEDVGVYYCMQAVQTPYIFGQGTKLEIK
modifications: mouse IgG2a and kappa constant regions
- binding to normal human tissues / cross-reactivity: bound to testis and did not bind to normal tissues; also recorded: lack detectable cross-reactivity
